Test results from publication PMC4476238 (Journal of immunology (Baltimore, Md. : 1950), 2015).
Blank lines part the entries; values can stand above or below the binder they belong to.

Molecular target: T1, Pep 4 (synthetic Phl p 1-derived peptide) (Phleum pratense (timothy grass))
T1 chain: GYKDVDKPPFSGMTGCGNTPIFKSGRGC
Experiment: ELISA

binding result: no binding
B1: ScFv 25VH/25VL (ScFv engineered from the V regions of the Phl p 1-specific IgE Fab clone 25) (scFv, V domains shown)
VH: LESGGGLVQPGGSLRLSCAASGFTFDDHAMHWVRQTPEKGLQWVSGISWNSGVVAYADSVKGRFSISRDNAKNSLYLQMNNLIPEDTAVYYCVRDFRAASPYFFDYWGQGTRVTVSS
VL: ELTQSPSSLSASVGDRVTITCRASQSIGNYLNWYQQKPGKAPNLLIYAASSLQSGVPSRFSGSGSGTDFTLTISSLQREDFATYYCQQSNRTPITFGQGTRLEIK

binding result: no binding
B2: P1 IgG1 (complete human monoclonal IgG1 Ab with the V regions of IgE Fab clone 25) (antibody, V domains shown)
VH: B1 VH
VL: B1 VL
